Experimental findings from patent US20190194323A1 (ALLAKOS, published 2019) are described below.

The target in assay [1] is T1, Siglec-7-ECD (human, UniProt Q9Y286 19-353).
T1 construct: also called p75; AIRM
The experiment in a line: bio-layer interferometry (ForteBio): antibody captured on the sensor, Siglec-7-ECD as analyte, 1:1 global fit. The procedure: A panel of antibodies was evaluated for binding to Siglec-7. The results identified anti-Siglec-7 antibodies that have improved KD values compared to commercially available anti-Siglec-7 antibodies (FIG. 7).
Antibody binding analysis was carried out by bio-layer interferometry (ForteBio). […] Antibodies were captured on anti-mouse kinetic sensors at 0.5 ug/mL; Siglec-7-ECD was used as analyte and diluted in assay buffer from 50 nM to 1.56 nM with 2× dilutions. Two-minute associations were conducted, followed by 10-minute dissociations. Results were determined relative to a control empty reference AHC sensor, and analyzed using ForteBio analysis software with 1:1 global fit parameters.
(In BLI a coated tip is dipped into the sample, and binding shifts an interference pattern.)

The target of assay [2] is Siglec-7 on primary human cells (NK cells, CD8+ tumor-infiltrating T cells) (human) (UniProt Q9Y286).
Another assay has as its target T2, Siglec-7-ECD-Fc (human, UniProt Q9Y286 19-353).
T2 construct: also called recombinant Siglec-7-Fc fusion protein; Siglec-7-Fc; not shown: human Fc (huFc)
As to the kind of experiment: ligand blocking on cells, flow cytometry: antibody dilutions pre-mixed with 10 nM Siglec-7-ECD-Fc, then binding of Siglec-7-ECD-Fc to Siglec-7 ligands on A375 melanoma cells. The procedure: Recombinant Siglec-7-Fc was added to A375 cells in the presence of anti-Siglec-7 antibodies at increasing concentrations and binding of the complex was detected on the cell surface.
Human melanoma cell line A375, which expresses high level of ligands for Siglec-7, was used to determine the blocking activity of anti-Siglec-7 antibodies in a cell based assay. Two-fold serial dilutions of anti-Siglec-7 antibodies (40 nM to 40 pM) were combined with 10 nM Siglec-7-ECD-Fc in FACS buffer (PBS/2% BSA) and incubated on ice for 30 minutes. 2.5×10e4 A375 cells per well were added to round bottom 96-well tissue culture plates in FACS buffer, plates were centrifuged at 400 g for 2 min, supernatant was removed and cells were re-suspended in 100 ul of the antibody-Siglec-7 complexes. After a 1 hour incubation on ice, cells were washed twice and incubated for 30 minutes with goat anti-human F(ab′)₂ fragment conjugated to AF647 (Jackson IR labs) at 1 ug/ml in FACS buffer. After two more washes, cells were fixed in PBS/2% PFA and acquired on a Novocyte flow cytometer (ACEA biosciences). IC₅₀ values for blocking were determined based on plotting mean fluorescence in the APC channel and analysis using Prism Graphpad software.
For orientation: A flow cytometer gives signals particle by particle.

Assay [3] deals with T1, Siglec-7-ECD. The experiment in a line: value quoted in the legend box of the internalization graph; same value as in the Figure 7 table (bio-layer interferometry).
Assay [4] has as its target Siglec-7 on primary human cells (NK cells, CD8+ tumor-infiltrating T cells) (human) (UniProt Q9Y286). The source holds these as a separate data set.
In assay [5] the target is T3, Siglec-7 on primary human cells (NK cells, CD8+ tumor-infiltrating T cells) (human, UniProt Q9Y286 19-467). The experiment in a line: cell-based or functional assay.
Assay [6] addresses T1, Siglec-7-ECD. The experiment in a line: monovalent Fab; bio-layer interferometry (ForteBio) per Methods; No. 12 of Table 1 (second entry of the pair; No. 2 gives 250-500).
Assay [7] addresses T1, Siglec-7-ECD. As to the kind of experiment: monovalent Fab; bio-layer interferometry (ForteBio) per Methods.
Assay [8] concerns the target T1, Siglec-7-ECD. The experiment in a line: monovalent Fab; bio-layer interferometry (ForteBio) per Methods; upper end of the range 250-500; No. 20 of Table 1.
Assay [9] has as its target T1, Siglec-7-ECD. The experiment in a line: monovalent Fab; bio-layer interferometry (ForteBio) per Methods; lower end of the range 250-500; No. 20 of Table 1.
In assay [10] the target is T1, Siglec-7-ECD. The experiment in a line: monovalent Fab; bio-layer interferometry (ForteBio) per Methods; No. 13 of Table 1 (second entry of the pair; No. 6 also gives >500).
Assay [11] deals with T3, Siglec-7 on primary human cells (NK …). The experiment in a line: cell-based or functional assay. This is another data set of the same source.

Positions count from the first letter of the chain named.

T3 sequence (Q9Y286 19-467 limits assumed): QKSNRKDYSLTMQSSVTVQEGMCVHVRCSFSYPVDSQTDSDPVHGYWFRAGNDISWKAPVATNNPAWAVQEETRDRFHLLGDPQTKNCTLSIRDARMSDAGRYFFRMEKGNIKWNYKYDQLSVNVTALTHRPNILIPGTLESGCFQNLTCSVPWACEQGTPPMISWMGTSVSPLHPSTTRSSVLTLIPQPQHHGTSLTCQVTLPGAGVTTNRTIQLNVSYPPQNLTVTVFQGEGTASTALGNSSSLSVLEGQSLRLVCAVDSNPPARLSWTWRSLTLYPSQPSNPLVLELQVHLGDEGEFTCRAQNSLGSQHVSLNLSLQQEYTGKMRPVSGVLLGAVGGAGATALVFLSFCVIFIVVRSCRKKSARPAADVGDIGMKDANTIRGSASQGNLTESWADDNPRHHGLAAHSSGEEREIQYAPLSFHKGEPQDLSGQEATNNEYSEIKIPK
Sequence of Siglec-7 on primary human cells (NK cells, CD8+ tumor-infiltrating T cells) (human) (Q9Y286 19-467 limits assumed): as above
T1 sequence (Q9Y286 19-353 limits assumed): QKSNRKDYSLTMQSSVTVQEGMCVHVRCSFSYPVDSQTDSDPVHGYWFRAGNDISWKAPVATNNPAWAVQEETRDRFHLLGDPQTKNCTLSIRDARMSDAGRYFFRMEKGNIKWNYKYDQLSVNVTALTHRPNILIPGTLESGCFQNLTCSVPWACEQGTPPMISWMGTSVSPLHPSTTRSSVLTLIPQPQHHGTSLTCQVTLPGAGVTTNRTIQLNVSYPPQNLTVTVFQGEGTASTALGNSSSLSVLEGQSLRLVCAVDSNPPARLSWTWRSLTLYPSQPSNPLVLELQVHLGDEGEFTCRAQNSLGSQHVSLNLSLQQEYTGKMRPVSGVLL
T2 sequence (Q9Y286 19-353): as the sequence (Q9Y286 19-353 limits assumed) above

As a reminder, the Kd is the free concentration of one partner at which half of the binding sites on the other are occupied at equilibrium, for simple one-to-one binding. A lower Kd goes with higher affinity. As a reminder, the IC50 is the midpoint of a concentration-inhibition curve. In the assay with Siglec-7-ECD [1], QA79 (antibody) registered an equilibrium dissociation constant (Kd) of 0.706 nM. In addition, in assay [2], the IC50 of Siglec-7 internalization on NK cells (24 h, PBMC; remaining surface Siglec-7 stained with 4B12-AF647) is 0.326 nM. This molecule showed an IC50 with Siglec-7-ECD-Fc of 7.49 nM.
Turning to “anti-Siglec-7 antibody clone S7.7 (BioLegend)”, the Kd in the assay with Siglec-7-ECD [3] and with Siglec-7-ECD [1] was 0.422 nM throughout. Also, in [4], the IC50 (read off the curve) amounted to 0.07 µg/mL. For the same molecule, the IC50 of Siglec-7 internalization on NK cells (24 h, PBMC; remaining surface Siglec-7 stained with 4B12-AF647) in assay [2] is 0.469 nM. In the assay with Siglec-7-ECD-Fc, this molecule returned an IC50 of 4.26 nM.

B1: monoclonal antibody 8A2 (antibody, V domains shown)
VH: QVQLKESGPGLVAPSQSLSITCTVSGFSLTTYGVDWVRQFPGKGLEWLGVIWGGGNTNYNSALMSRLSISKDTSKSQVFLKMNSLQTDDTAMYYCAKHKGTSHAMEYWGQGTSVTVSS
VL: QIVLTQSPAIMSASPGEKVTMTCSASSRVIFMYWYQQKPGSSPRLLIYDTSNLASGVPVRFSGGGSGTSYSLTISRMEAEDAATYYCQQWSSYPPTFGAGTKLELK
On to B1, for which the equilibrium dissociation constant (Kd) in the assay with Siglec-7-ECD [1] is 0.001 nM. The “IC50 of Siglec-7 internalization on NK cells (24 h, PBMC; remaining surface Siglec-7 stained with 4B12-AF647)” value in assay [5] was determined as 0.0149 nM.

B2: monoclonal antibody 16H11 (antibody, V domains shown)
VH: QVQLHQSGAELVKPGASVKISCKGSGYDFSNFWMNWVKQRPGKGLEWIGQIYPGDGEIKYNGKFKGKATLTADESSSTAYIHLSSLTSEDSAVYFCARDDYLRAMDYWGQGTSVTVSS
VL: DIQMTQSPASLSASVGETVTITCRASGNIHNYLAWFQQKQGKSPHFLVYSAKALADGVPSRFSGSGSGTQYSLKINSLQPEDFGTYYCQHFWSSPYTFGGGTKLEIK
notes: Parental antibody; The Methods capture antibodies on anti-mouse sensors
The molecule B2 showed a dissociation constant Kd with Siglec-7-ECD [1] of 0.035 nM. Moreover, the IC50 in the assay with Siglec-7-ECD-Fc is 7.42 nM. Moreover, in [5], the “IC50 of Siglec-7 internalization on NK cells (24 h, PBMC; remaining surface Siglec-7 stained with 4B12-AF647)” value is 0.0106 nM.

B3: 10E11 (antibody, V domains shown)
VH: EVQLQQSGPELVKPGDSVKISCKASGYSSTGYFMNWVMQSHGKSLEWIGRIIPYNGDTFYNQKFKDKATLTVDKSSNTAHLELRSLTSEDSVVYYCAGPRIGGDYDGGSWLAYWGQGTLVTVSA
VL: DIVMTQSQKFMSTTVGDRVSITCKASQNVGTAVAWYQQKPGHSPKLLIYSASNRYTGVPDRFTGSGYGTDFTLTISNMQSEDLADYFCQQYNSYPLTFGAGTKLELK
Molecule B3 yielded a Kd with Siglec-7-ECD [1] of 0.522 nM. Moreover, the 50% inhibitory concentration (IC50) in the assay with Siglec-7-ECD-Fc amounted to 6.23 nM. Further, in [5], the “IC50 of Siglec-7 internalization on NK cells (24 h, PBMC; remaining surface Siglec-7 stained with 4B12-AF647)” value worked out at 0.0493 nM.

B4: 5D1 (antibody)
heavy chain variable region: QVQLQQPGAELVKPGASVKMSCKASGYTFTSSWITWVKDRPGQGLEWIGDIYPGNGNTNYNEKFKSKATLTVDTSSNTVYMQLSSLTSEDSAVHYCARDGRGYFDYWGPGTTLTVSS
light chain variable region: DIQMTQTTSSLSASLGDRVTIICRASQDISNFLNWYQQKPDGTVKLLMYDTSILQSGVPSRFSGRGSGADYSLTINNLEQEDLATYFCQQGKTLPYTFGGGTKLEIK
Molecule B4 came in with an equilibrium dissociation constant (Kd) with Siglec-7-ECD [1] of 0.001 nM. In addition, in assay [5], the “IC50 of Siglec-7 internalization on NK cells (24 h, PBMC; remaining surface Siglec-7 stained with 4B12-AF647)” value was found to be 0.0206 nM.

B5: 2G12 (antibody, V domains shown)
VH: QVQLQQPGAELVKPGASVKLSCKASGYTFTSYWMQWVKQRPGQGLEWIGEIDPSVSYTEYNQKFKGKATLTVDTSSSTAYMQLSSLTSEDSAVYFCARWSKDYYGMDYWGQGTSVTVSS
VL: DIVLTQSHKFMSTSVGDRVTITCKASQDVSTAVAWYQQKPGQSPKLLIYWTSTRHTGVPDRFTGSGSGTDHTLTISSVQAEDLALYYCHQQYSTPPTFGGGTKLEIK
For B5, the affinity in the assay with Siglec-7-ECD [1], expressed as Kd, was 0.205 nM. This molecule also gave a half-maximal inhibitory concentration (IC50) with Siglec-7-ECD-Fc of 19.8 nM. In assay [5], the “IC50 of Siglec-7 internalization on NK cells (24 h, PBMC; remaining surface Siglec-7 stained with 4B12-AF647)” value came to 0.0673 nM.

B6: humanized 16H11-derived Fab, VH AK417-17 / VL AK418-2 (Fab, V domains shown)
VH: QVQLVQSGAEVKKPGSSVKVSCKASGYDFSNFWMNWVRQAPGQGLEWMGGIYPGDGEINYAQKFQGRVTITADESTSTAYMELSSLRSEDTAVYYCARDDYLRAMDIWGQGTMVTVSS
VL: DIQMTQSPSSLSASVGDRVTITCRASGNIHNYLAWYQQKPGKAPKFLLYSAKRLESGVPSRFSGSGSGTDYTLTISSLQPEDFATYYCQHFWSSPYTFGGGTKVEIK
notes: Measured as monovalent Fab; also called No. 2; No. 12
On to B6, for which the Kd with Siglec-7-ECD [6] was above 0.5 nM; with Siglec-7-ECD [7], 0.25 to 0.5 nM.

B7: humanized 16H11-derived Fab, VH AK417-17 / VL AK435-7 (Fab, V domains shown)
VH: B6 VH
VL: B6 VL with G27Q, S56D
notes: Measured as monovalent Fab; also called No. 14; No. 20
With B7, the dissociation constant (Kd) in the assay with Siglec-7-ECD [8] is at most 0.5 nM; with Siglec-7-ECD [9] it was at least 0.25 nM; in the assay with Siglec-7-ECD [7], above 0.5 nM.

B8: humanized 16H11-derived Fab, VH AK417-17 / VL AK419-2 (Fab, V domains shown)
VH: B6 VH
VL: B6 VL with G27Q
notes: Measured as monovalent Fab; also called No. 6; No. 13
For B8, the Kd with Siglec-7-ECD [10] and with Siglec-7-ECD [7] was above 0.5 nM in each case.

B9: monoclonal antibody 3F1 (antibody, V domains shown)
VH: EFQLQQSGPEMVKPGASVKMSCKASGDSFTDYKINWVKQNNGKSLEWIGVINPDSGTTSYNQIFEGKATLTVDQSSSTAYMQVNRLTSEDSAVYYCTTWDDYSFYAMDYWGQGTSVTVSS
VL: DVLMTQTPLSLPVSLGDQASISCRSSQNIVHSNGNTYLEWFLQKPGQSPKLLIYKVSNRFSGVPDRFSGSGSGTDFTLKISRVEAEDLGVYYCFQGSHIPWTFGGGTKLEIK
Consider B9, for which the equilibrium dissociation constant (Kd) with Siglec-7-ECD [3] and with Siglec-7-ECD [1] was 0.041 nM in each case. In addition, the “IC50 (read off the curve)” value in [11] is around 0.001 µg/mL. In the assay with Siglec-7-ECD-Fc, this molecule came in with a 50% inhibitory concentration (IC50) of 8.5 nM. The “IC50 of Siglec-7 internalization on NK cells (24 h, PBMC; remaining surface Siglec-7 stained with 4B12-AF647)” value in assay [5] worked out at 0.013 nM.

B10: 5G10 (antibody, V domains shown)
VH: EVKLEESGGGLVQPGGSMKVSCVASGFTFSNYWMNWVRQSPEKGLEWVAQIRLKSDNYATHYAESVKGRFTISRDDSKSSVYLQMNNLRAEDTGIYYCTEGDYDIFAYWGQGTLVTVSA
VL: DIQMTQTTSSLSASLGDRVTISCSASQGITNYLNWYQQKPDGTVKLLIYYTSILHSGVPSRFSGSGSGTDYSLTISNLEPEDIATYYCQQYSKPPYTFGGGTKLEIK
On to B10, for which, in the assay with Siglec-7-ECD [1], the Kd was determined as 0.001 nM. Besides, the IC50 with Siglec-7-ECD-Fc was 3.07 nM. Further, the “IC50 of Siglec-7 internalization on NK cells (24 h, PBMC; remaining surface Siglec-7 stained with 4B12-AF647)” value in assay [5] stood at 0.206 nM.

B11: 9D4 (antibody)
heavy chain variable region: QVTLKESGPGILQPSQTLSLTCSFSGFSLSTFGMGVGWIRQPSGKGLEWLAHIWWDDDKYYHPALKSRLTISKDTSNNQVFLKIANVDTAETATFYCARVERGYPLDHWGQGTTLRVSS
light chain variable region: DIVLTQSPASLAVSLGQRATISCRASQSVSSSSYSYMHWYQQKPGQPPKLLIKYASNLKSGVPARFSGSGSGTDFTLTIHPVEEEDTATYYCQHSWEIPPTFGGGTKLEIK
Molecule B11 yielded a Kd with Siglec-7-ECD [1] of 0.76 nM. In addition, in the assay with Siglec-7-ECD-Fc, the IC50 was 1.41 nM. Further, the “IC50 of Siglec-7 internalization on NK cells (24 h, PBMC; remaining surface Siglec-7 stained with 4B12-AF647)” value in assay [5] is 0.0875 nM.
